We go through two molecules from patent US20230312755A1 (ANGITIA, published 2023).

Substitutions are numbered along the chain they refer to. Ends that are not written are not given here.

One experiment concerns the target T1, pep5 (human, also: biotinylated (NHS-biotin), site not given here).
T1 construct: Chemically synthesized peptide of the second loop of human Sclerostin, biotinylated and immobilized on a streptavidin biosensor
T1 peptide: PNAIGRGKWWR
In words: BLI (Gator), biotinylated peptide on streptavidin biosensor, 93B1B7 5 µg/ml as analyte. Here is the method:
(§1) The peptides were biotinylated (NHS-Biotin Reagents, Thermo, #21343) and immobilized on Streptavidin biosensor, using a 0.5 μg/ml solution.

A further experiment deals with T2, pep6 (human, also: biotinylated (NHS-biotin), site not given here).
T2 construct: Chemically synthesized peptide of the second loop of human Sclerostin, biotinylated and immobilized on a streptavidin biosensor
T2 peptide: IGRGKWWRPSGP
The description is as above. On the procedure:
as §1

A further experiment has as its target T3, Pep1 (human, biotinylated (NHS-Biotin Reagents)).
T3 construct: Chemically synthesized peptide of the second loop of human Sclerostin, biotinylated and immobilized on a streptavidin biosensor; also called hScl 110-133
T3 peptide: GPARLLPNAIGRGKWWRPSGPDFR
Described as above. On the procedure: as §1

The target in the next experiment is T4, Pep10 (also: biotinylated (NHS-biotin), site not given here).
T4 construct: also called Pep 10 mSOST
T4 peptide: KWWRPNGPDFR
As to the kind of experiment: BLI (Gator), biotinylated peptide on streptavidin biosensor, 93B1B7 as analyte. On the procedure:
as §1

The target of a further experiment is T5, Pep9 (also: biotinylated (NHS-biotin), site not given here).
T5 construct: also called Pep9 mSOST
T5 peptide: IGRVKWWRPNGP
Described as above. Here is the method:
as §1

The target in a further experiment is T6, Pep2 (biotinylated (NHS-biotin), site not given).
T6 construct: also called Pep2 mSOST
T6 peptide: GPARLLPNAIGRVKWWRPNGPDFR
The experiment is described as above. On the procedure:
as §1

A further experiment concerns the target T7, Pep4 (also: biotinylated (NHS-biotin), site not given here).
T7 construct: also called Pep4 hSOST
T7 peptide: RLLPNAIGRGK
The experiment is described as above. Here is the method:
as §1

For a further experiment, the target named is T8, Pep7 (also: biotinylated (NHS-biotin), site not given here).
T8 construct: also called Pep7 hSOST
T8 peptide: KWWRPSGPDFR
The experiment is described as above. Here is the method: as §1

A further experiment has as its target T9, Pep3 (also: biotinylated (NHS-biotin), site not given here).
T9 construct: also called Pep3 h/mSOST
T9 peptide: GPARLLPNAIGR
The experiment is described as above. On the procedure: as §1

The target of the next experiment is T10, Pep8 (also: biotinylated (NHS-biotin), site not given here).
T10 construct: also called Pep8 mSOST
T10 peptide: PNAIGRVKWWR
The description is as above. On the procedure:
as §1

In experiment [1] the target is T11, human Sclerostin (human, UniProt Q9BQB4 24-213).
T11 sequence: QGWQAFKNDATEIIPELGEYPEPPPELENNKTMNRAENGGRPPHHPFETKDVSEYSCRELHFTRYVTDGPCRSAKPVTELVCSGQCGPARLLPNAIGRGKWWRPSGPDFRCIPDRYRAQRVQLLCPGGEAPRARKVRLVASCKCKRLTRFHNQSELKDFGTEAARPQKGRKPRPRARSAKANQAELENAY
As to the kind of experiment: cell-based or functional assay.

Experiment [2] deals with T12, His-tagged human Sclerostin (NCBI reference No. NP_079513.1) (human, UniProt Q9BQB4 24-213).
T12 construct: also called mouse His-tagged human Sclerostin; not shown: His tag
T12 sequence: T11 sequence
In words: ELISA, plate coated with His-tagged human Sclerostin. Here is the method: The ability of antibodies to specifically bind Sclerostin was determined by an ELISA capture assay. Plates were coated, in a 96-well half-area, with 100 μl/well of mouse His-tagged human Sclerostin (NCBI reference No. is NP_079513.1) [[…]], in coating buffer (PBS, pH 7.4), and incubated at RT for one hour, or 4° C. overnight. The plates were washed once with 100 μl/well of washing solution (PBS containing 0.2% Tween20, BIO-RAD). Plates were then incubated in blocking solution (PBS containing 1% BSA, 1% goat serum and 0.5% Tween20; 100 μl/well) for one hour at room temperature (RT). Anti-Sclerostin antibodies at various concentrations (1000, 333.3, 111.1, 37.0, 12.3, 4.1, 1.4, 0.5, 0.15, 0.05 ng/ml), a positive control antibody Romosozumab or non-Sclerostin related IgG (human or rat IgG, negative control), were then added to each well in 20 μl/well of blocking solution, and plates were incubated at RT for one hour. NeutrAvidin HRP (Pierce, Catalog #31001) diluted in blocking solution (1:50,000 dilution) was added at to each well ([…]), and the plates were incubated at RT for one hour prior to three washes with […] of washing solution. SuperSignal ELISA Femto (ThermoFisher Scientific, Catalog #37074) working solution was added to the plates ([…]), and the signal was read using a luminometer at 425 nm.
Background: In an ELISA, binding on a coated surface is turned into a signal by an enzyme label.

The target of experiment [3] is T11, human Sclerostin. In words: BLI (Gator), antibody on anti-hFc biosensor, Sclerostin as analyte, 1:1 global fit. On the procedure:
(§2) The binding affinity of humanized anti-Sclerostin antibodies to human and cynomolgus monkey Sclerostin were determined with bio-layer interferometry using a Gator instrument (Probe Life). Antibodies were immobilized on an anti-hFc biosensor, using a […]. Serial dilutions of human Sclerostin and cynomolgus monkey Sclerostin from 4 μg/ml by two folds in kinetics buffer (PBS, pH 7.4, 0.05% Tween-20, 0.2% BSA, 10 μM biotin) were used as the analytes. Affinity (KD) and kinetic parameters (Kₒₙ and Koff) were calculated from a global fit (1:1) of the data using the Gator software.

For experiment [4], the target named is T13, cynomolgus monkey Sclerostin (cynomolgus monkey, UniProt Q9BG78 24-213 (Chlorocebus aethiops entry)).
T13 chain: T11 sequence with E26D, P70Q, E129A, T161P, S178G
Described as above. On the procedure: as §2

In experiment [5] the target is T14, human RANKL (human, UniProt O14788 140-317, limits assumed).
T14 construct: Analyte in BLI; also called hRANKL; TNFSF11
T14 sequence (looked up): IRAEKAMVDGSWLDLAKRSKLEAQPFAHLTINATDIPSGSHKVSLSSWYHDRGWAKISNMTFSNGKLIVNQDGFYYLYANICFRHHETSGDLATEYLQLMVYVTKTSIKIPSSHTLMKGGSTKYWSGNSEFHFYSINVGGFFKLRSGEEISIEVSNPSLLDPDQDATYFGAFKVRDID
In words: BLI (Gator), antibody on anti-hFc biosensor, antigen as analyte; koff at LOD, KD estimated. Here is the method: (§3) Binding kinetics and affinities of anti-Sclerostin×anti-DKK1 and anti-Sclerostin×anti-RANKL bispecific antibodies were measured with Gator (Probe Life) bio-layer interferometry (BLI). Antibodies were immobilized on an anti-hFc biosensor, using a 5 μg/ml solution. Serial dilutions of sclerostin (from 1 μg/ml), DKK1 (from 2 μg/ml), or RANKL (from 4 μg/ml) by two folds in kinetics buffer (PBS, pH 7.4, 0.05% Tween-20, 0.2% BSA) were used as the analytes. Affinity (KD) and kinetic parameters (Kₒₙ and Koff) were calculated from a global fit (1:1) of the data using the Gator software.

The target of experiment [6] is T11, human Sclerostin. The experiment is described as above. Here is the method: as §3
The target in experiment [7] is T14, human RANKL. In words: BLI (Gator), antibody on anti-hFc biosensor, antigen as analyte, 1:1 global fit. Here is the method:
as §3

For experiment [8], the target named is T11, human Sclerostin. The description is as above. Here is the method:
as §3

B1: 93B1B7 (antibody, V domains shown)
VH: QAQLQQSGAELVRPGASVTLSCKASGYTFTDYEIHWMKQTPVHGLEWIGAIDPETGGTAYNQKFKGKAILTADRSSSTAYLELRSLTSEDSAVYYCYSYDYVTYWGQGTLVTVSA
VL: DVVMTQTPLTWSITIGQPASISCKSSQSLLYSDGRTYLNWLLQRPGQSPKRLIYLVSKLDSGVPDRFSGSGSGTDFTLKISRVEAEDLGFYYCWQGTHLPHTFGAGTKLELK
notes: Murine monoclonal antibody from a hybridoma; also called mAb 93B1B7; Antibody 93B1B7
With B1, the binding result was “binds” with pep5; “binds” with pep6; “binds” with Pep1; “no binding (tested: 5 µg/ml)” with Pep10; “no binding (tested: 5 µg/ml)” in the experiment with Pep9; “no binding (tested: 5 µg/ml)” in the experiment with Pep2. In addition, the binding result in the experiment with Pep4, in the experiment with Pep7, with Pep3 and with Pep8 was “no binding (tested: 5 µg/ml)” in each case. In the experiment with human Sclerostin [1], the “EC50, Sclerostin-neutralisation activity in HEK293/TCF/LEF/Wnt1 cells (luciferase reporter)” value amounted to 57.9 nM. For the same molecule, a half-maximal effect in experiment [2] (EC50) was put at 0.04 nM. Also, the Kd (commonly the equilibrium constant for the complex coming apart) came to 0.051 nM with human Sclerostin [3] and 0.018 nM in [4]. Further, the koff (as a rule, a measure of how fast the partners let go of each other) with human Sclerostin [3] was 8.4e-05 s⁻¹; in experiment [4], 6.5e-05 s⁻¹. Further, the association rate constant (kon) (commonly the second-order rate constant of association) is 1e+06 M⁻¹ s⁻¹ with human Sclerostin [3] and 2.2e+06 M⁻¹ s⁻¹ in experiment [4].

B2: BAP0069 (bispecific antibody, human IgG4 S228P, kappa, F234A L235A)
heavy: EVQLVQSGAEVKKPGASVKVSCKASGYTFTDYEIHWVRQAPGKGLEWMGAIDPETGGTAYNQKFKGRVTMTTDTSTSTAYMELRSLRSDDTAVYYCYSYDYVTYWGQGTTVTVSSASTKGPSVFPLAPCSRSTSESTAALGCLVKDYFPEPVTVSWNSGALTSGVHTFPAVLQSSGLYSLSSVVTVPSSSLGTKTYTCNVDHKPSNTKVDKRVESKYGPPCPPCPAPEAAGGPSVFLFPPKPKDTLMISRTPEVTCVVVDVSQEDPEVQFNWYVDGVEVHNAKTKPREEQFNSTYRVVSVLTVLHQDWLNGKEYKCKVSNKGLPSSIEKTISKAKGQPREPQVYTLPPSQEEMTKNQVSLTCLVKGFYPSDIAVEWESNGQPENNYKTTPPVLDSDGSFFLYSKLTVDKSRWQEGNVFSCSVMHEALHNHYTQKSLSLSPGKGGGGSGGGGSGGGGSEIVLTQSPGTLSLSPGERATLSCRASQSVRGRYLAWYQQKPGQAPRLLIYGASSRATGIPDRFSGSGSGTDFTLTISRLEPEDFAVFYCQQYGSSPRTFGCGTKVEIKGGGGSGGGGSGGGGSGGGGSEVQLLESGGGLVQPGGSLRLSCAASGFTFSSYAMSWVRQAPGKCLEWVSGITGSGGSTYYADSVKGRFTISRDNSKNTLYLQMNSLRAEDTAVYYCAKDPGTTVIMSWFDPWGQGTLVTVSA
light: DVVMTQSPLSLSVSPGERASLSCKSSQSLLYSDGRTYLNWYLQKPGQSPQRLIYLVSKLDSGVPDRFSGSGSGTDFTLKISRVQSEDVGVYYCWQGTHLPHTFGGGTKVEIKRTVAAPSVFIFPPSDEQLKSGTASVVCLLNNFYPREAKVQWKVDNALQSGNSQESVTEQDSKDSTYSLSSTLTLSKADYEKHKVYACEVTHQGLSSPVTKSFNRGEC
notes: Anti-RANKL scFv (VL-VH, Denosumab) fused to the C-terminus of the heavy chains of the anti-Sclerostin full length antibody (hAb-1)
B2: the Kd with human RANKL [5] and with human Sclerostin [6] was ~0.01 nM each time. The kon with human RANKL [7] came out at 86700 M⁻¹ s⁻¹; with human Sclerostin [8], 757000 M⁻¹ s⁻¹.
